First the molecules themselves.
B1: Zinc finger CCHC domain-containing protein 8 (Homo sapiens), Q6NZY4 (parent)
chain: MAAEVYFGDLELFEPFDHPEESIPKPVHTRFKDDDGDEEDENGVGDAELRERLRQCEETIEQLRAENQELKRKLNILTRPSGILVNDTKLDGPILQILFMNNAISKQYHQEIEEFVSNLVKRFEEQQKNDVEKTSFNLLPQPSSIVLEEDHKVEESCAIKNNKEAFSVVGSVLYFTNFCLDKLGQPLLNENPQLSEGWEIPKYHQVFSHIVSLEGQEIQVKAKRPKPHCFNCGSEEHQMKDCPMPRNAARISEKRKEYMDACGEANNQNFQQRYHAEEVEERFGRFKPGVISEELQDALGVTDKSLPPFIYRMRQLGYPPGWLKEAELENSGLALYDGKDGTDGETEVGEIQQNKSVTYDLSKLVNYPGFNISTPRGIPDEWRIFGSIPMQACQQKDVFANYLTSNFQAPGVKSGNKRSSSHSSPGSPKKQKNESNSAGSPADMELDSDMEVPHGSQSSESFQFQPPLPPDTPPLPRGTPPPVFTPPLPKGTPPLTPSDSPQTRTASGAVDEDALTLEELEEQQRRIWAALEQAESVNSDSDVPVDTPLTGNSVASSPCPNELDLPVPEGKTSEKQTLDEPEVPEIFTKKSEAGHASSPDSEVTSLCQKEKAELAPVNTEGALLDNGSVVPNCDISNGGSQKLFPADTSPSTATKIHSPIPDMSKFATGITPFEFENMAESTGMYLRIRSLLKNSPRNQQKNKKASE
partner: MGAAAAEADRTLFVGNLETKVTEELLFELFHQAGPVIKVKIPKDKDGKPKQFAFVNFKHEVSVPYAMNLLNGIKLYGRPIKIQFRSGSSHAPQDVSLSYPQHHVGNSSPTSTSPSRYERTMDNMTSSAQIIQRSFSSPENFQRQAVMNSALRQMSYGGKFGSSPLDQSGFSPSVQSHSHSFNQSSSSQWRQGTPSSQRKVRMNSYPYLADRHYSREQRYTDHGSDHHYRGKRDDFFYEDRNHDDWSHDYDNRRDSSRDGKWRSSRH
B2: RNA-binding protein 7 (Homo sapiens), Q9Y580 (parent)
chain: B1 partner
partner: B1 chain

Experimental findings from IntAct's records for PubMed 27905398 are described below.

The variants in one test derive from B1. Conditions: with rbm7_human RBM7, Q9Y580.
Turning to F309A;M313E, the “effect of a mutation on the interaction” value is “disrupting interaction strength”. Still for that read-out and setting: as for L295E;L299E, the entry is “disrupting interaction strength”.

The next test covers variants of B2. Conditions: with zchc8_human ZCCHC8, Q6NZY4.
Consider L25E;L29E, for which the “effect of a mutation on the interaction” value is on record as “decreasing interaction strength”.

For Y65A;L69E, the “effect of a mutation on the interaction” value is given as “decreasing interaction strength”.
